# According to the PETadex activity labels:
# Legend:
# PET [1] = assay: Proxy for plastic degradation [Released monomer concentration (HPLC/LC-MS) (Total aromatic products)] (nmol/(min*cm²)); conditions: pH 9
# PBSA = assay: Proxy for plastic degradation [kcat/Km (catalytic efficiency)] (mM⁻¹s⁻¹); conditions: pH 8.2
# PET [2] = assay: Proxy for plastic degradation [Released monomer concentration (HPLC/LC-MS) (TPA+MHET)]; conditions: pH 9
# PET [3] = assay: Proxy for plastic degradation [Released monomer concentration (HPLC/LC-MS) (TPA+EG)]; conditions: pH 8, 70 °C, part of the chain shown
# PET [4] = assay: Proxy for plastic degradation [Crystallinity (DSC)] (% crystallinity loss); conditions: pH 9.4
# PET [5] = assay: Proxy for plastic degradation [Released monomer concentration (HPLC/LC-MS) (TA)]; conditions: pH 7
# PET [6] = assay: Proxy for plastic degradation [Released monomer concentration (HPLC/LC-MS) (BA)]; conditions: pH 7
protein,measurement,setting,value
unnamed (protein) ANPYERGPNPTDALLEARSGPFSVSEENVSRLSASGFGGGTIYYPRENNTYGAVAISPGYTGTEASIAWLGERIASHGFVVITIDTITTLDQPDSRAEQLNAALNHMINRASSTVRSRIDSSRLAVMGHSMGGGGSLRLASQRPDLKAAIPLTPWHLNKNWSSVTVPTLIIGADLDTIAPVATHAKPFYNSLPSSISKAYLELDGATHVAPNIPNKIIGKYSVAWLKRFVDNDTRYTQFLCPGPRDGLFGEVEEYRSTCPFYPNSSSVDKLAAALE,Proxy for plastic degradation,PET [1],6.5
unnamed (protein) ANPYERGPNPTDALLEARSGPFSVSEENVSRLSASGFGGGTIYYPRENNTYGAVAISPGYTGTEASIAWLGERIASHGFVVITIDTITTLDQPDSRAEQLNAALNHMINRASSTVRSRIDSSRLAVMGHSMGGGGSLRLASQRPDLKAAIPLTPWHLNKNWSSVTVPTLIIGADLDTIAPVATHAKPFYNSLPSSISKAYLELDGATHLAPNIPNKIIGKYSVAWLKRFVDNDTRYTQFLCPGPRDGLFGEVEEYRSTCPFYPNSSSVDKLAAALE,Proxy for plastic degradation,PET [1],0.5
unnamed (protein) ANPYERGPNPTDALLEARSGPFSVSEENVSRLSASGFGGGTIYYPRENNTYGAVAISPGYTGTEASIAWLGERIASHGFVVITIDTITTLDQPDSRAEQLNAALNHMINRASSTVRSRIDSSRLAVMGHSMGGGGSLRLASQRPDLKAAIPLTPWHLNKNWSSVTVPTLIIGADLDTIAPVATHAKPFYNSLPSSISKAYLELDGATHWAPNIPNKIIGKYSVAWLKRFVDNDTRYTQFLCPGPRDGLFGEVEEYRSTCPFYPNSSSVDKLAAALE,Proxy for plastic degradation,PET [1],3
unnamed (protein) MLAVWDDTLAHPVRGRDRELATLTGLLDNTSGRRGTGMVVVGAPGTGKTTLLNALVEHAEGFQVLWAEGSAAESDVRFAGVEQLLRPLESLVSLLPDDRGRALRPVWGLPADDEGQVGSLAVPAAVSALLGLAARRQPVLCCVDSAHLLDSASLSALAFAARRAHHAGVVFVFAVDCTADTEVDTETSVWGELPRLRLGRLDDEAAHALLRDRLGASLPHDLADSLLDVGHGHPLALVELAESLTPEHLCGRAAPPSSPPPEGRLCRTLGHRLSALSEGAREVVALAGISEGLDEQLTCRVLPHHRSTLAEAVRSGLVVLDGDTVRTAADTVPSALLAALTPQDIVQAHHRMAEAAEAVGDRDRAVWHRAAIAMAPDPALVADLDDIAERARAAAAHATAAAASERAAALTSDTKERARRLVAAATDHWASGRPQRARTALRLAAPLSDSVLGARVSRLAGEIELRRGDPSVAATKLISTARQLASTHRTLAASALMLAGEASFVAGDNARYCLTAKDAALLCGPEEWPATRVVREHFTAMSATFRGEHSAAAAPLRSLVELGETTPDPTAKTLASQAAFTLGDAERSRDLALQAVVCARARGDESGVPWALVYAALSALLSGQLSAASTTALEGLQVARSLGQSNSAVDHVTVLAMLAALQGDEETALQRLQAANTELAERGLGRPSALATWAAACVDLAHDRPAEAFDRFRRMTVGRSRHCVPLRVMAVPHFVEAAVRCGEKEVARRSLVTFEHWANTTGGTARVALAHRCHALLAEQDGEAQERFTEAVRLHREADAPYDLAVTQLLYASHLRRSRRPKQARELLREAVQLFDDLGATHWVERASQELRACGHPGRGKPHLSRGLSPQQERIAQLVADGATNKEIATQLFISHRTVDHHLRNIFAKLDVRSRVQLAALFR,Proxy for plastic degradation,PBSA,375
unnamed (protein) MNPFEKGPDPTKTMLEASTGPFTYTTTTVSSTTASGYRQGTIYHPTNVTGPFAAVAVVPGYLASQSSINWWGPRLASHGFVVITIDTNSTSDQPPSRATQLMAALNQLKTFSNTSSHPIYRKVDPNRLGVMGWSMGGGGTLIAARDNPTLKAAIPFAPWNSSTNFSTVSVPTLIIACESDSTAPVNSHASPFYNSLPSTTKKAYLEMNNGSHSCANSGNSNAGLIGKYGVSWMKRFMDNDTRFSPYLCGAPHQADLSLTAIDEYRENCPY,Proxy for plastic degradation,PET [2]; 30 °C,795 µM
same,Proxy for plastic degradation,PET [2]; 40 °C,790 µM
unnamed (protein) QLGAIENGLESGSANACPDAILIFARGSTEPGNMGITVGPALANGLESHIRNIWIQGVGGPYDAALATNFLPRGTSQANIDEGKRLFALANQKCPNTPVVAGGYSQGAALIAAAVSELSGAVKEQVKGVALFGYTQNLQNRGGIPNYPRERTKVFCNVGDAVCTGTLIITPAHLSYTIEARGEAARFLRDRIRA,Proxy for plastic degradation,PET [3]; 0 h,0%
same,Proxy for plastic degradation,PET [3]; 24 h,38%
same,Proxy for plastic degradation,PET [3]; 48 h,50%
same,Proxy for plastic degradation,PET [3]; 72 h,70%
same,Proxy for plastic degradation,PET [3]; 96 h,90%
unnamed (protein) MNFPRASRLMQAAVLGGLMAVSAAATAQTNPYARGPNPTAASLEASAGPFTVRSFTVSRPSGYGAGTVYYPTNAGGTVGAIAIVPGYTARQSSIKWWGPRLASHGFVVITIDTNSTLDQPSSRSSQQMAALRQVASLNGTSSSPIYGKVDTARMGVMGWSMGGGGSLISAANNPSLKAAAPQAPWDSSTNFSSVTVPTLIFACENDSVAPVASSALPIYDSMSRNAKQFLEINGGSHYCANSGNSNQALIGKKGVAWMKRFMDNDTRYSTFACENPNSTRVSDFRTANCSLEHHHHHH,Proxy for plastic degradation,PET [4],3.2
unnamed (protein) MNFPRASRLMQAAVLGGLMAVSAAATAQTNPYARGPNPTAASLEASAGPFTVRSFTVSRPSGYGAGTVYYPTNAGGTVGAIAIVPGYTARQSSIKWWGPRLASHGFVVITIDTNSTLDQPSSRSSQQMAALRQVASLNGTSSSPIYGKVDTARMGVMGWSMGGGGSLISAANNPSLKAAAPQAPWDSSTNFSSVTVPTLIFACENDSIAPVNSSALPIYDSMSRNAKQFLEINGGSHSCANSGNSNQALIGKKGVAWMKRFMDNDTRYSTFACENPNSTRVSDFRTANCSLEHHHHHH,Proxy for plastic degradation,PET [4],1.5
unnamed (protein) MNFPRASRLMQAAVLGGLMAVSAAATAQTNPYARGPNPTAASLEASAGPFTVRSFTVSRPSGYGAGTVYYPTNAGGTVGAIAIVPGYTARQSSIKWWGPRLASHGFVVITIDTNSTLDQPSSRSSQQMAALRQVASLNGTSSSPIYGKVDTARMGVMGWSMGGGGSLISAANNPSLKAAAPQAPWDSSTNFSSVTVPTLIFACENDSVAPVNSSALPIYDSMSRNAKQFLEINGGSHSCANSGNSNQALIGKKGVAWMKRFMDNDTRYSTFACENPNSTRVSDFRTANCSLEHHHHHH,Proxy for plastic degradation,PET [4],0.6
unnamed (protein) MNFPRASRLMQAAVLGGLMAVSAAATAQTNPYARGPNPTAASLEASAGPFTVRSFTVSRPSGYGAGTVYYPTNAGGTVGAIAIVPGYTARQSSIKWWGPRLASHGFVVITIDTNSTLDQPSSRSSQQMAALRQVASLNGTSSSPIYGKVDTARMGVMGWSMGGGGSLISAANNPSLKAAAPQAPWDSSTNFSSVTVPTLIFACENDSVAPVASSALPIYDSMSRNAKQFLEINGGSHSCANSGNSNQALIGKKGVAWMKRFMDNDTRYSTFACENPNSTRVSDFRTANCSLEHHHHHH,Proxy for plastic degradation,PET [4],2
unnamed (protein) MTHQIVTTQYGKVKGTTENGVHKWKGIPYAKPPVGQWRFKAPEPPEVWEDVLDATAYGPICPQPSDLLSLSYTELPRQSEDCLYVNVFAPDTPSQNLPVMVWIHGGAFYLGAGSEPLYDGSKLAAQGEVIVVTLNYRLGPFGFLHLSSFNEAYSDNLGLLDQAAALKWVRENISAFGGDPDNVTVFGESAGGMSIAALLAMPAAKGLFQKAIMESGASRTMTKEQAASTSAAFLQVLGINEGQLDKLHTVSAEDSLKAADQLRIAEKENIFQLFFQPALDPKTLPEEPEKAIAEGAASGIPLLIGTTRDEGYLFFTPDSDVHSQETLDAALEYLLGKPLAEKAADLYPRSLESQIHMMTDLLFWRPAVAYASAQSHYAPVWMYRFDWHPKKPPYNKAFHALELPFVFGNLDGLERMAKAEITDEVKQLSHTIQSAWITFAKTGNPSTEAVNWPAYHEETRETLILDSEITIENDPESEKRQKLFPSKGE,Proxy for plastic degradation,PET [5]; 1 h,0 µM
same,Proxy for plastic degradation,PET [5]; 2 h,100 µM
same,Proxy for plastic degradation,PET [6]; 1 h,10 mM
same,Proxy for plastic degradation,PET [6]; 2 h,1250 mM
